Assays:
[1] = molecular target: Nonlabens marinus rhodopsin 1 (NM-R1), proteorhodopsin clade (Nonlabens marinus S1-08T); experiment: cryo-EM structure
[2] = molecular target: Nonlabens marinus rhodopsin 3 (NM-R3), chloride ion-pumping rhodopsin clade (Nonlabens marinus S1-08T); experiment: cryo-EM structure

Substance | stoichiometry N [1] | stoichiometry N [2]
Nonlabens marinus rhodopsin 1 (NM-R1), proteorhodopsin clade (natural protein) | 5 | –
Nonlabens marinus rhodopsin 3 (NM-R3), chloride ion-pumping rhodopsin clade (natural protein) | – | 5
